Assay [1] deals with T1, MUTANT 4 (mouse, UniProt P22272).
T1 construct: also called mouse IL-6R with human residues in D3, mutant 4
T1 sequence (receptor chain, looked up): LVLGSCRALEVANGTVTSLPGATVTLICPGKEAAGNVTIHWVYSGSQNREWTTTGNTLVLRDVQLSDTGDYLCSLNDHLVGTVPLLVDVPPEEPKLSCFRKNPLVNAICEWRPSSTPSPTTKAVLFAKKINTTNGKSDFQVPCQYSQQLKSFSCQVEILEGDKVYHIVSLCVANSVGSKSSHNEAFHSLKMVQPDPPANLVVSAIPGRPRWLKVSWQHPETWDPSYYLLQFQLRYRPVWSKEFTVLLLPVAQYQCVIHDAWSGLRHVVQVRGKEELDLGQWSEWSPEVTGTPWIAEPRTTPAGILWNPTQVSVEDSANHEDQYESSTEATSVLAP
Kind of assay: flow cytometry on PEAK cells displaying the mutated mouse IL-6R, goat anti-human IgG Alexa Fluor 647. An excerpt: (§1) An overlap extension PCR strategy was used to generate coding sequences specifying huIL-6R/mouseIL-6R chimeric proteins (FIG. 6A) and mouse IL-6R proteins containing human amino acid substitutions in D3 domains (FIG. 6B). Partially overlapping mutagenic oligonucleotide primers were used for PCR amplification of N- and C-terminal sequences on either side of huIL-6R/mouse IL-6R junctions or substituted regions, followed by gel isolation and annealing of the denatured PCR products. Full length PCR products were then digested by EcoRI and BglII and ligated into a pDISPLAY™ vector (Invitrogen). PEAK cells were grown in DMEM medium supplemented with 10% fetal calf serum and 4 mM L-glutamine. Cells were plated 12 to 24 h before transfection to have 40-50% confluency in 6 well plates. Transfections of pDISPLAY™ vectors (Invitrogen) were carried out by lipofection using TransIT® LT1 reagent (MirusBio) according manufacturer's specifications. Cells were grown for 48 h before harvesting and analysis by flow cytometry.
(§2) Cell surface staining was performed on PEAK cells displaying each variant of IL-6R and analyzed by flow cytometry (FIG. 6B-D). Cell surface expression of each chimeric IL-6R was assessed using an anti-human-CD126 PE or an anti-mouse CD126-PE antibody (BD Pharmingen).
In general terms: In flow cytometry, cells or beads pass a laser one at a time.

In assay [2] the target is T2, MUTANT 2 (mouse, UniProt P22272).
T2 construct: also called mouse IL-6R with human residues in D3, mutant 2
T2 sequence (receptor chain, looked up): T1 sequence (receptor chain, looked up) with P237A, V238E, W239R, E242T, W261L, S262R, L264V, R265K
Described as above.
Excerpt: as §1, §2

Assay [3] concerns the target T3, MUTANT 1 (mouse, UniProt P22272).
T3 construct: also called mouse IL-6R with human residues in D3, mutant 1
T3 sequence (receptor chain, looked up): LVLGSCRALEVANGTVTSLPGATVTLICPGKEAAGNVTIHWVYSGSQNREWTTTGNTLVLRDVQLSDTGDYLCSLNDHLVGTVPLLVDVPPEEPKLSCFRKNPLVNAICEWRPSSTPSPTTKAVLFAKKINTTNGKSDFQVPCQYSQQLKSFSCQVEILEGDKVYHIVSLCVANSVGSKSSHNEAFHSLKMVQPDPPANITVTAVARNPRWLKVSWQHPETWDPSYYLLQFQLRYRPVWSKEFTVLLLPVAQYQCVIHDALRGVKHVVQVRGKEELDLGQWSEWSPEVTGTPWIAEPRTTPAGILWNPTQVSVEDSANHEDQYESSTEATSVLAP
The description is as above.
Excerpt: as §1, §2

Assay [4] concerns the target T4, MUTANT 3 (mouse, UniProt P22272).
T4 construct: also called mouse IL-6R with human residues in D3, mutant 3
T4 sequence (receptor chain, looked up): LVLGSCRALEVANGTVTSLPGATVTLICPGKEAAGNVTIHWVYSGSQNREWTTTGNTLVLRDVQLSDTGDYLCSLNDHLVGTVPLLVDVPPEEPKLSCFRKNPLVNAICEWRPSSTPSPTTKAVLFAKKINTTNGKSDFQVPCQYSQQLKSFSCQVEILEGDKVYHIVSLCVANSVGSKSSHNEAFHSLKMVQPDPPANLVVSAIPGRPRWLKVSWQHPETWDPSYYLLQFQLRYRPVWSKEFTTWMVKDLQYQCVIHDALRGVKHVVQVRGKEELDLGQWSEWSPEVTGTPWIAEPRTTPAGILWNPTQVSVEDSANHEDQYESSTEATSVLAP
The description is as above.
Excerpt: as §1, §2

In assay [5] the target is T5, FULLY MOUSE IL-6R (mouse, UniProt P22272).
T5 construct: also called chimeric receptor #5
T5 sequence (receptor chain, looked up): T1 sequence (receptor chain, looked up) with W261L, S262R, L264V, R265K
In words: flow cytometry on PEAK cells displaying the IL-6R variant, goat anti-human IgG Alexa Fluor 647.
Excerpt: as §1, §2

Residue numbers refer to the chain shown, from its start.

B1: NI-1201 wild type (NI-1201-WT) antibody (antibody, V domains shown)
VH: QVQLVQSGAEVKKPGSSVKVSCKASGGTFSSYAISWVRQAPGQGLEWMGGIIPLFDTTKYAQQFQGRVTITADESTSTAYMELSSLRSEDTAVFYCARDRDILTDYYPMGGMDVWGQGTTVTVSS
VL: AIQLTQSPSSLSASVGDRVTITCRASQGISSVLAWYQQKPGKAPKLLIYDASSLESGVPSRFSGSGSGTDFTLTISSLQPEDFATYYCQQSNSYPLTFGGGTKVEIKR
notes: Fully human monoclonal IgG (captured by anti-human IgG Fc in Biacore); also called 39B9 VL1
With B1, the binding result in assay [1] is “no binding”; in assay [2] it was “binds”; in assay [3] it was “no binding”; in assay [4] it was “no binding”; in assay [5] it was “no binding”.

These data come from patent US20160130351A1 (NOVIMMUNE S A, published 2016).
